In article PMC12561191:

Biological target: BAX, the ligand protein coupled on the SPR chip, Q07812
Experiment: SPR
Conditions: natural protein; chains chain; remark: other sources report otherwise

Sequence of BAX, the ligand protein coupled on the SPR chip, Q07812 (Q07812 whole entry): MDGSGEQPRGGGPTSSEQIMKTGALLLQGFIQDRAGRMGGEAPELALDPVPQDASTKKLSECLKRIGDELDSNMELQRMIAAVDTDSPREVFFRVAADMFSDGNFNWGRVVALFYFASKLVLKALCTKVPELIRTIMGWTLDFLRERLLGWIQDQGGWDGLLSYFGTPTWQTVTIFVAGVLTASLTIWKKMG

Kd: 11.3 µM
B1: recombinant human MANF (rhMANF) protein, P55145 25-182 (protein)
chain: LRPGDCEVCISYLGRFYQDLKDRDVTFSPATIENELIKFCREARGKENRLCYYIGATDDAATKIINEVSKPLAHHIPVEKICEKLKKKDSQICELKYDKQIDLSTVDLKKLRVKELKKILDDWGETCKGCAEKSDYIRKINELMPKYAPKAASARTDL
